This note sets out measurements from article PMC7864924, “Structures of active-state orexin receptor 2 rationalize peptide and small-molecule agonist recognition and receptor activation” (Nature Communications, 2021).

The chains are these.
B1: 27 (VHH)
VHH: QVQLVESGGGLVQAGGSLRLSCAASGFPVTTRSMYWYRQAPGKEREWVAAIASNGRLTAYADSVKGRFTISRDNAKNTVYLQMNSLEPEDTAVYYCEVFVGYYYHGQGTQVTVS
B2: 34 (VHH)
VHH: B1 VHH with T30N, T31N, N54S, R56F, L57T, E87K, F99V, Y103W
B3: 22 (VHH)
VHH: QVQLVESGGGLVQAGGSLRLSCAASGFPVYKHTMYWYRQAPGKEREWVAAINSTGAETAYADSVKGRFTISRDNAKNTVYLQMNSLKPEDTAVYYCEVYVGWFYHGQGTQVTVS
B4: 25 (VHH)
VHH: B3 VHH with Y30N, K31N, T33V, N52S, T54Q, W102Y
B5: 31 (VHH)
VHH: B3 VHH with Y30T, K31E, H32N, N52T, T54N, A56S, E57Q, W102Y
B6: 30 (VHH)
VHH: B3 VHH with Y30K, K31T, H32Y, N52E, A56R, E57Y, W102F
B7: 33 (VHH)
VHH: B3 VHH with Y30D, H32A, T33H, N52D, A56S, E57Y, A59H, W102Y, F103M
B8: 26 (VHH)
VHH: B3 VHH with Y30A, K31H, H32F, T33V, N52S, A56Y, E57N, W102Y
B9: 32 (VHH)
VHH: B1 VHH with T30A, T31E, R32K, R56V, E87K, F99Y, Y103F
B10: 24 (VHH)
VHH: B3 VHH with Y30D, K31A, H32Y, T33V, N52A, T54Q, A56H, E57P, S63P, W102Y
B11: 38 (VHH)
VHH: B3 VHH with K31T, H32N, N52T, T54S, A56H, E57N
B12: 36 (VHH)
VHH: B3 VHH with Y30N, K31T, N52T, T54N, A56Q, E57S, Y99R, W102Y
B13: 1 (VHH)
VHH: QVQLVESGGGSVQAGGSLRLSCAASGWIQTITYLGWFRQAPGKEREGVAALVTNEGNTYYADSVKGRFTVSLDNAKNTVYLQMNSLKPEDTALYYCAAASWGFVTPLWYYYTYWGQGTQVTVS
B14: 8 (VHH)
VHH: QVQLVESGGGLVQAGGSLRLSCAASGFPVKHREMYWYRQAPGKEREWVAAIVSKGNVTEYADSVKGRFTISRDNAKNTVYLQMNSLKPEDTAVYYCNVKDYGWWNAHYDYWGQGTQVTVS
B15: 14 (VHH)
VHH: B14 VHH with E33H, V52A, K54N, N56H, V57R, W103F, W104Y, N105L, A106W
B16: 11 (VHH)
VHH: B14 VHH with K30A, Y35F, V52T, N56S, V57Q, E59A, N105T, H107V
B17: 2 (VHH)
VHH: QVQLVESGGGLVQAGGSLRLSCAASGFPVYRAFMAWYRQAPGKEREWVAAIHSTGWWTHYADSVKGRFTISRDNAKNTVYLQMNSLKPEDTAVYYCHVWVGYTYIGQGTQVTVS
B18: 5 (VHH)
VHH: QVQLVESGGGSVQAGGSLRLSCAASGYISGIEYLGWFRQAPGKEREGVAALYTFEGTTYYADSVKGRFTVSLDNAKNTVYLQMNSLKPEDTALYYCAAAKYGEWGPLWFHEYWYWGQGTQVTVS
B19: 19 (VHH)
VHH: QVQLVESGGGLVQAGGSLRLSCAASGFPVMENTMYWYRQAPGKEREWVAAIDSYGYYTYYADSVKGRFTISRDNAKNTVYLQMNSLKPEDTAVYYCNVKDVGDHWWFYDYWGQGTQVTVS
B20: 6 (VHH)
VHH: QVQLVESGGGSVQAGGSLRLSCAASGNISAIGYLGWFRQAPGKEREGVAALVTWFGKTYYADSVKGRFTVSLDNAKNTVYLQMNSLKPEDTALYYCAAATYGNKNPLTDSYYSYWGQGTQVTVS
B21: 10 (VHH)
VHH: QVQLVESGGGLVQAGGSLRLSCAASGFPVETRHMYWYRQAPGKEREWVAAIQSEGYLTHYADSVKGRFTISRDNAKNTVYLQMNSLKPEDTAVYYCNVKDIGWLWVHYDYWGQGTQVTVS
B22: 20 (VHH)
VHH: QVQLVESGGGLVQAGGSLRLSCAASGFPVKTNKMAWYRQAPGKEREWVAAITSYGSWTVYADSVKGRFTISRDNAKNTVYLQMNSLKPEDTAVYYCAVWVGALYIGQGTQVTVS
B23: 4 (VHH)
VHH: QVQLVESGGGSVQAGGSLRLSCAASGAINHIWYLGWFRQAPGKEREGVAALYTWTGWTYYADSVKGRFTVSLDNAKNTVYLQMNSLKPEDTALYYCAAAYFGFASPLRARRYEYWGQGTQVTVS
B24: 9 (VHH)
VHH: QVQLVESGGGLVQAGGSLRLSCAASGFPVKQHHMYWYRQAPGKEREWVAAIESGGKETRYADSVKGRFTISRDNAKNTVYLQMNSLKPEDTAVYYCNVKDWGWWWTNYDYWGQGTQVTVS
B25: 17 (VHH)
VHH: B24 VHH with K30V, Q31G, H32W, E52N, G54S, E57K, R59L, W101A, W104F, T106Y
B26: 16 (VHH)
VHH: B24 VHH with K30A, Q31R, H32W, E52N, G54T, K56D, E57M, R59L, W104Y, T106V
B27: 12 (VHH)
VHH: B24 VHH with K30Y, Q31T, H32A, H33Y, G54Q, K56Q, E57H, R59I, T106L
B28: 18 (VHH)
VHH: QVQLVESGGGLVQAGGSLRLSCAASGFPVNTAHMYWYRQAPGKEREWVAAIASSGDMTLYADSVKGRFTISRDNAKNTVYLQMNSLKPEDTAVYYCNVKDWGWWYVAYDYWGQGTQVTVS
B29: 3 (VHH)
VHH: QVQLVESGGGLVQAGGSLRLSCAASGFPVNWKSMAWYRQAPGKEREWVAAISSFGWYTEYADSVKGRFTISRDNAKNTVYLQMNSLKPEDTAVYYCWVKVGATYYGQGTQVTVS
B30: 29 (VHH)
VHH: B29 VHH with N30K, S33T, F54W, W56L, T91S, W97Y, K99G, T103G, Y105R
B31: 37 (VHH)
VHH: B29 VHH with N30W, W97A, K99Y, A102S, T103Y, Y105W, Q107R
B32: 28 (VHH)
VHH: B29 VHH with N30V, S33T, A35W, F54Y, K65N, W97A, K99L, A102Y, Y105E
B33: 23 (VHH)
VHH: B29 VHH with N30V, S33Q, F54W, K87N, W97F, A102D, T103G, Y105T
B34: 35 (VHH)
VHH: B29 VHH with N30R, F54Y, W56F, Y57W, W97I, K99H, A102V, T103S, Y105R
B35: 21 (VHH)
VHH: B29 VHH with N30K, S33T, F54W, W56L, W97L, K99Q, A102V, Y105H, Q107H

Residue numbers refer to the chain shown, from its start.

In the experiment the target is engineered OX2R carrying an additional amino-terminal Avi-tag, biotinylated (Homo sapiens, UniProt O43614, residues V261–A291 deleted, biotin on the Avi-tag (BirA biotin-protein ligase)).
In the case of B1, the binding result was “binds”.
Consider B2, for which the binding result was “binds”.
For the molecule B3, the binding result is recorded as “binds”.
For the molecule B4, the binding result is listed as “binds”.
On to B5, for which the binding result is “binds”.
Take B6: the binding result is “binds”.
B7: the binding result was “binds”.
As for B8, the binding result was “binds”.
Turning to B9, the binding result is listed as “binds”.
For the molecule B10, the binding result is listed as “binds”.
Turning to B11, the binding result is on record as “binds”.
The value for B12 was “binds”; that for B13 was “binds”; that for B14 was “binds”.
Regarding B15, the binding result was “binds”.
As to B16, the binding result was “binds”.
As to B17, the binding result is recorded as “binds”.
The value for B18 was “binds”; that for B19 was “binds”; that for B20 was “binds”.
For the molecule B21, the binding result was “binds”.
B22: the binding result is listed as “binds”.
As for B23, the binding result is reported as “binds”.
For B24, the binding result is reported as “binds”.
For the molecule B25, the binding result is on record as “binds”.
On to B26, for which the binding result is “binds”.
Regarding B27, the binding result is recorded as “binds”.
B28: the binding result is given as “binds”.
Regarding B29, the binding result is given as “binds”.
In the case of B30, the binding result is on record as “binds”.
With B31, the binding result was “binds”.
As to B32, the binding result is listed as “binds”.
B33: the binding result was “binds”.
The value for B34 was “binds”.
In the case of B35, the binding result is recorded as “binds”.
